Measured values published in patent US20190016778A1 (Xencor, published 2019).

Biological target: T1, human CD8 (captured on Octet biosensor) (human, UniProt P01732 22-182)
T1 construct: also called recombinant human CD8a
Assay: method not given; Octet (BLI) is the method of this example

B1: humanized OKT8 variant (H2L1) (antibody)
chain 1: QVQLVQSGAEVKKPGASVKVSCKASGFNIKDTYIHWVRQAPGKGLEWMGRIDPANDNTLYASKFQGRVTITADTSINTAYMELSRLRSDDTAVYYCGRGYGYYVFDHWGQGTTVTVSSASTKGPSVFPLAPSSKSTSGGTAALGCLVKDYFPEPVTVSWNSGALTSGVHTFPAVLQSSGLYSLSSVVTVPSSSLGTQTYICNVNHKPSNTKVDKKVEPKSCDKTHTCPPCPAPPVAGPSVFLFPPKPKDTLMISRTPEVTCVVVDVKHEDPEVKFNWYVDGVEVHNAKTKPREEQYNSTYRVVSVLTVLHQDWLNGKEYKCKVSNKALPAPIEKTISKAKGQPREPQVYTLPPSREQMTKNQVKLTCLVKGFYPSDIAVEWESNGQPENNYKTTPPVLDSDGSFFLYSKLTVDKSRWQQGNVFSCSVMHEALHNHYTQKSLSLSPGK
chain 2: DIKMTQSPSSLSASVGDRVTITCRTSRSISQYLAWYQEKPGKTNKLLIYSGSTLQSGIPSRFSGSGSGTDFTLTISSLQPEDFATYYCQQHNENPLTFGAGTKLEIKRTVAAPSVFIFPPSDEQLKSGTASVVCLLNNFYPREAKVQWKVDNALQSGNSQESVTEQDSKDSTYSLSSTLTLSKADYEKHKVYACEVTHQGLSSPVTKSFNRGEC
chain 3: EPKSSDKTHTCPPCPAPPVAGPSVFLFPPKPKDTLMISRTPEVTCVVVDVKHEDPEVKFNWYVDGVEVHNAKTKPREEEYNSTYRVVSVLTVLHQDWLNGKEYKCKVSNKALPAPIEKTISKAKGQPREPQVYTLPPSREEMTKNQVSLTCDVSGFYPSDIAVEWESDGQPENNYKTTPPVLDSDGSFFLYSKLTVDKSRWEQGDVFSCSVMHEALHNHYTQKSLSLSPGK
With B1 as the binder, how does the Kd read?
Its Kd is 12 nM.
